Data as given in the DeepSol protein solubility set.

assay: soluble on expression in E. coli; label from the status in PepcDB or PDB records

For “MSLQGKFQPTWESLANYKIPEWFRNVKFGIWAHWGPQCVEGSGDWMARSLYMENSPEYRHHIANYGHPSEFGFKDIIPLWKAEKWDPDKLVAFYKKIGAQYFFALGNHHDNMDLWDSKYQPWNSVNMGPKKDILKGWERAARKHGLYFGVSLHADHAWSWYETSQRHDTQGPKKGIPYDGKLTKADGKGKWWEGYDPQDLYAQNHPLSQDSWDNGTIHRQWAWGNGVCLPTQEYCTNFYNRTLDVINRYNPDLLYFDVTVAPFYPISDAGLKIAAHFYNHNMSMQKGKLNAVMFGKILDANQRKALVWDVERGAPNKIIDEPWQSCSCLGGWHYNTSIYNNNQYKSAADVVKLLVDIVSKNGNLLLSVPLRADGTFDEKEEKILNEFGNWMNINKEAIYQTRPWKIFGEGPIADKDVQLNAQGFNEWAYSKADAKEIRFTQTDKNLYATVLGWPEDGKILIRSLAEGNGLYPTKIGRVELLGYGKVSFTRTDKGLVVDIPAKSLKNIAPVLKIRKEGHHHHHH”, which “soluble on expression in E. coli” value is on record?
Its value is “soluble”.

For “MSSDTGSEYLDEEIRGDELGPSIDDNALAAAASAARLPFDRPTDHELAFFPELWEHKTAVEVFLLLRNSTLATWQYNPLKECTALDVRNNVFPPFNSDLDLIQNIVHYLSRHGLINFGRYVRSTKISRFLVRDRRSVIVIGAGAAGISAATQLESFGFDVIVLEARNCIGGRIHSFKSKSGEIMETGGDTLRKIEDSPMATLLHQVNFEEHGVFDFTSVFVEGRPLNEEKIHLFLDHYKSAHGALNYQAHQCEHRDDQGSFISRQQAYENLLSMCERGTLIKYYNFCKSLETVARAREHHFNQMKQLRMTALMAENQLKKMEEEGNLEQDPVLRRSLKRDIATSLEKFEEVADAFETADNHWQRLNEHPQAKQYMHPGSEFATFNFMLGFEEYLVGAQLEKVQFSCDSMQNKENGVAARLTEGIAELLTQLSEKRKLDIRLKHRVLDIDYSGFEHVLLKVQRENGDIEEMKAAFVVSTLPIGVLKKTIIADERAPTFTPSLPDKKVEAIRNIGCGSVNKCILEFDRVFWTANGGRNQFVTVSPNIKTRGSMNIWSSVPGSKVLCTYIVGEEAMLELPDDVIIQNAMINLQKAFGNNCPRAPISAHITRWHDDELAFGSGAFMSLRTETTSFDDVMEPLKTSDGMSRVYFAGEHTCSSYTSTIQGAWMSGARAAADISNDHIGIGFVDISGTRGQRGDEEEELLIEVDIDGKIPEKDENEAVADIPNAPNAPNAQKPEEIPKIAEEIELVAEAEKAEKAEVQLEPLVPTVE”, which “soluble on expression in E. coli” value is on record?
The value was “not soluble”.

For “KELKDSYVEYTLLYDMIANRIGIDEVVAENGTLRLMKNQVWAYDSLPHMLIAGGTGGGKTYFLLTIIEALLKSDAELFILDPKNADLADLGTVMPHVYSQKEEISACVEDFYERMIARSKAMKEMPNYKPGENYAYLGLPPNFLIFDEYVAYMGANRFPTS”, which “soluble on expression in E. coli” value is on record?
Its value is “not soluble”.

With “MAHHHHHHMLSTSQAFLASLRYRRPYWMLFLKGADNWKIYTVIQQPDHQRTEMLYQAWLGGLDRPYVRPKCMAHQPVWLSKKRHLLQKARLEGPETSVEKYVLEWYKKFHSFQGTDRPTAEDLHTAFDLVERPLDLSYACQLLNQCRNHYYIRLSDDSFEIFLEACLRVDRRDCAIYALEHAEELGFWHVSDNCRRYLAGEQTWYKRSPVDLLYYPLEENAERNTAVTSGTAASAVAASDKVKGDEKVEGAPRTSATTSATAASAENEGEAEVTDDEIARLQAELEALEREIGSEGADGTDKD” as the sequence, how does the “soluble on expression in E. coli” value read?
The value was “not soluble”.

Which “soluble on expression in E. coli” value does the source give for “PKVSVIMTSYNKSDYVAKSISSILSQTFSDFELFIMDDNSNEETLNVIRPFLNDNRVRFYQSDISGVKERTEKTRYAALINQAIEMAEGEYITYATDDNIYMPDRLLKMVRELDTHPEKAVIYSASKTYHLNENRDIVKETVRPAAQVTWNAPCAIDHCSVMHRYSVLEKVKEKFGSYWDESPAFYRIGDARFFWRVNHFYPFYPLDEELDLNYITDQSIHFQLFELEKNEFVRNLPPQRNCRELRESLKKLGMG” here?
The value was “soluble”.

For “MGSDKIHHHHHHMGLEQDDEGGARRACVIVIGNQKGGSGKSTVAMHLVVSLARAGLRTGSIDLDAGQATLTRYLENRRAFAEKRGLDLPSPEHVPMVPGTSLEADIRRLEHSMLAFHEEVDVVVIDTPGSDTALNRAAHALADVLITPLNDSFIDLDVMARIDGDSMTITGPSPYAAAVWEAKQARARRDGTSMRWIVMRNRLSHLDARNKRDMEDALNDLSRRIGFSVVPGLGERVIYRELFLNGLTLLDLKDKGTGVDISMSHVAARQELRALLAAIGMPKSIGL”, which “soluble on expression in E. coli” value is on record?
Its value is “not soluble”.

With “MHMSQSTQRAYQEVLDWLEKELRKGSIAIGDKLPGERALAEQFELSRASVREAIRILTSMGLVRTGTGSGPHSGAIVISEPSAGLSWAIRMHLSARSLPLKDLVNTCILIESNAAADAATPKISPDSPERSHVLNEAHRLLDSMDDPTLPFHDYHIKDVNFHILITSLAGNLVTETIMESLRYSAIAFVIERLAMRTDWAEVSEKLQREHRNILRAIEERNPDKARTLVHDHIADFYELTSH” as the sequence, how does the “soluble on expression in E. coli” value read?
Its value is “not soluble”.

For “GAVGLTIRSNITYSKNEIVDRDEENNYYWYKMQKGHRVNQARGLISLGLFKDYDDIRNSPVQDFDGYKVMPGDIKYKDVNGDGKIDGNDQVAIGATTKPNLIYGFGIAANWKGLDVNLHFQGAGKSTYFIDGSTVHMFKLGDGWGNVLSEMANSNRWISADISGDPATENPNAEYPRLSYGPNSNNYQQSTYWLRNGSYLRLKTVEVGYTLPTQLVNKVHFNTVRIFFVGTNLLTWSAFKLWDPEMGSTDGKRYPLSKNLSLGISVNL”, which “soluble on expression in E. coli” value is on record?
Its value is “not soluble”.

Which “soluble on expression in E. coli” value does the source give for “KGGWFGKHRGQGGSNPKFENIAEGLRALLARSHVERTTDEGTWVAGVFVYGGSKTSLYNLRRGTALAIPQCRLTPLSRLPFGMAPGPGPQPGPLRESIVCYFMVFLQTHIFAEVLKDAIKDLVMTKPAPTCNIRVTVCSFDDGVDLP” here?
Its value is “soluble”.

For “MRRGNRRTPGPVCRQAFRAEFTAIHAPVVFFMSCNRQIVRSLRQQIPSFECVPGCHDCCGPVTTSPEEMSRLPRKTAAEQEAAMDELNCVHLGPNGCTVYDERPLICRLFGTTPSLPCPNGRRPVEMIHPRVEKQIHDYMASTRQVLVLEHHHHHH”, which “soluble on expression in E. coli” value is on record?
Its value is “not soluble”.

For “MGSSHHHHHHSSGLVPRGSHMHVQAKFSNNLNIFEYSIVIRKIFYLGPPGSFSQEAAEIFGSDLVPVRSISEIFHKISVTGDYGIVPIENSIEGPVNETLDGLFRHEDIYIVDHVEIPIEIFLASNCDTENIRRIYSHPHAIAEAGDYLERTENIEVIRTSSTSEAAKLASMDEAGAALCSMKAAQHYGLANTVKIESKSRNITRFILIGRERNVEGSRHIILCVIPDRPGSLHSLIGVLASRGINMNMIYSRPLRDTIWKYYFYIEFSGKLDEDLLLTMGKQSLRILYKGSFKCCR”, which “soluble on expression in E. coli” value is on record?
Its value is “soluble”.

With “KLEAMKEAEGKEPSETDIKPKRIEEPVLKGFAAPAQTAPAPVSKPAPVAKKKEVEQEAKPGLFSRLFKALGSFLFGGSEEVKEEPKQEEKKSNRDNKRNKRDRNDRRRSNQRDNREGRENRDNRRRRKPREEQANEQNEAQQPANKQQPNRSQKRKPKPQQAEKAQEPKANAKVAEKGLQLAAEARSEVKPEENKAKANAKTEKVKERRQRRKLNKSVRVKDQLADEQVEETAVKAIEPVESQVDQAVDTAADAQQDNKQGESKQRRNRRSPRHLRASGQRRRRGRDRRPNPFRLRKGGVASPEMAMGKVMPRYIPKPAPKKEERVQEETVVAIATVPAMQGGFACPEMAMGKVIIRREQPAVAEAPVVEPKVQETVEAKAESPIVEAVAPEKAEPVAVDQAPVEPIVEVAEAPVAEATTETVVEEAPVQEPVVAETVEEAATEVAVETPVAAPEMKAEVINVVAKPRASAPMTKAPGPQELREIEVAAAPFKAERYQAKGAGSQVATNRASAAMTKPNFN” as the sequence, how does the “soluble on expression in E. coli” value read?
Its value is “not soluble”.

For “MKKSNIYIGEVIKQVIAEKQVTKAELARRLGVKPQSVDYLLTRKSIDTDTLYSLSLALDYDFAVLYSIKKEHALATDEESPFKVGNAKISLEIELRPDEMLKLNLKQKIADLLEGKGK”, which “soluble on expression in E. coli” value is on record?
The value was “not soluble”.

Which “soluble on expression in E. coli” value does the source give for “MLKYNVRGENIEVTDALRSYVEKRLNKLEKYFELNQDVIAHVNLRVYRDHSAKVEVTIPLPYLVLRAEETTDDMYRSIDFVSEKLERQIRKYKTRVNRKSREKGLQDFFVEQPEEEKKPSEFDIVRNKRVSLKPMDPEEAILQMDMLEHDFFVFEDAETNGTSVVYRRNDGRYGLIETNELEHHHHHH” here?
The value was “soluble”.

For “MATIGTFKKSGNEFSGEIVTLSVQAKGVRIVPESNRSGDNAPSHRVYVGRAEIGAAWSKTSNEGREYLGLKLDDPSFTAPIYANLFDDEEGDTFSLIWSRAAKRNGD”, which “soluble on expression in E. coli” value is on record?
The value was “not soluble”.

For “NSKKETVTVGVLQFVSHPALDEIYKGVEEGLKENGYDKGKNLEIIFQNGQADQSKLAIMSQQLVQKKADVLIGIATPAAQALANTTQEIPIILGAITDPVSAGLVKDNQKPGGNITGVSDQSPLSAQMDLLKELIPAAKKIGILYASSEENSRYQVAEAQKAAEAKGLTVKTYAVPSSNEIAQTVQVMTKETDVIYIPTDNTIANAMQTVVGEANRTKTPIIPSVDTMVEQGGLATVGINQHALGVQAGKMAAEVLSGKSQPATTPIYTFNTGDTIINEKQAQKLGITIPAELAKKSKLIN”, which “soluble on expression in E. coli” value is on record?
The value was “not soluble”.

Which “soluble on expression in E. coli” value does the source give for “MGSDKIHHHHHHMKIALIQPKMNKRPMDTDLKTRMSPPLSLLTLMGLTPEGHEVIMVNENVEKIDYACGAELVGITITLDVMPRAVEIAEEFHRLGIPVVAGGIHVTSSPDECRGYFDAICIGAAERVWERMIEDAEESRLQQVYHDMTDFRGEEIASPAYHRIDKNRYLYTNIMTTSRGCPNRCGFCYNSCRNRMYIRRPVTDVLRDIEGLGTRHILFIDDNFIGVPAYTRELLNHLRGRELKWSAAVTTKIADYPDVLDLMAETGCQSLFIGFESINNSSLHGVNKDNQFEKYERIVTAIHSRGIMINASMVFGLDGDEPDVFQRTLDWLVKNKIETLTSHILTPYPGTELHGRMKEEGRILDHELSRYNTAHVVFQPKGMTAEELYKGYLWIYREFYSFPNIWRRRPEHKAQRKSFFLFNILYRKFGGLTSVLARIIPMRTVGRLAARISYRVK” here?
The value was “not soluble”.

With “KMAHIGSWKWDIVTGELYWSDELYLIFGLDPQEFRPAYNSFFNYIHPGDRDFVDNAIKKALNGEQLYDNDHRIISADGEERIVHSHGEVIFDEKNTPVRMRGTLQDIT” as the sequence, how does the “soluble on expression in E. coli” value read?
Its value is “not soluble”.

With “MISANKQFDIQLGDEIGKDFFTQDTVVCAFRNKEKTTDFVFTSGPIILICDGTTRRKMIKRRFKMEFDIKKVFFHSFIVTRNAEKLATENCGGPDTKHRDYLVVCGEHKLQFISLPDYHFYHYEIPFKLRNVFSCSTSLLVERFYDSSSEQTFHHHDTFHLYSLSGPFGELLPVIYKTSGYHPQWKFCWQSHRDEAGLVDAQQNYVVVYDQKEKTHRIYMARETQEQEVHAAIRYVEALRRPSDSTMFASSLAPNSAGRTTHFDPTLNSPAENVLSEVISSEIDSRSPFTPHLRSGFGHSTPNNPNAPGYPATLPTPNFEGNFFF” as the sequence, how does the “soluble on expression in E. coli” value read?
The value was “not soluble”.

With “MATVGGAFKDSLTQAQKDELHQIALKIVQDGKGILAADESTGTIGKRLDAINLENNETNRQKYRQLLFTTPNLNQHISGVILYEETFHQSTDKGEKFTDLLIKQGIVPGIKLDLGVVPLAGTIGEGTTQGLDKLAERAAAFKKGGCGFAKWRCVLNIGTHTPSHLGMLENANVLARYASICQANGLVPIVEPEVLCDGEHDLARAQKVTEQVLAFVYKALADHHVYLEGTLLKPNMVTPGQSSASKASHEAIGLATVTALRRGVPAAVPGITFLSGGQSELDATANLNAINSVQLGKPWKLTFSYGRALQASVLKAWGGKDENIAAAQKTLLHRSKANGDASLGKYAGEDAAGAAAESLFVAKHSY” as the sequence, how does the “soluble on expression in E. coli” value read?
The value was “not soluble”.
